Assay results reported in publication PMC7505815, “Estrogen receptor alpha (ERα)–mediated coregulator binding and gene expression discriminates the toxic ERα agonist diethylstilbestrol (DES) from the endogenous ERα agonist 17β-estradiol (E2)” (Cell Biology and Toxicology, 2020).

T1: Polyhistidine (His) tagged ERα ligand binding domain (amino acids 302–552) (UniProt P03372 302-552)
T1 construct: Detected on the array by a penta-His Alexa Fluor 488 antibody; Always tested with E2, DES or solvent (2% DMSO); also called ERα-LBD; source: partly purified from Escherichia coli (Qiagen)
T1 sequence (looked up): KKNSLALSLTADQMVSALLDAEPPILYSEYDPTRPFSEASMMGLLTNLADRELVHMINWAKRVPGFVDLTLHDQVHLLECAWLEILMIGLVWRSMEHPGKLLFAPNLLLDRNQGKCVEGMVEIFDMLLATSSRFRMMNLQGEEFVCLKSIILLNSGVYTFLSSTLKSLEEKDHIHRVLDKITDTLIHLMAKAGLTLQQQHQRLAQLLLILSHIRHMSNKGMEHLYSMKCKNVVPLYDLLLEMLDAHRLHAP

B1: NCOA1_677_700 (peptide, UniProt Q15788 677-700, looked up)
peptide: PSSHSSLTERHKILHRLLQEGSPS
notes: Immobilised on the PamChip; source: bought: PamChip peptide microarray, PamGene International BV
B2: NCOA2_628_651 (peptide, UniProt Q15596 628-651, looked up)
peptide: GQSRLHDSKGQTKLLQLLTTKSDQ
notes: as for B1
B3: NCOA1_1421_1441 (peptide, UniProt Q15788 1421-1441, looked up)
peptide: TSGPQTPQAQQKSLLQQLLTE
notes: as for B1
B4: ANDR_10_32 (peptide, UniProt P10275 10-32, looked up)
peptide: VYPRPPSKTYRGAFQNLFQSVRE
notes: Immobilised on the PamChip; also called Androgen receptor–related coregulator motif; source: bought: PamChip peptide microarray, PamGene International BV
B5: TRIP4_149_171_C171S (peptide, UniProt Q15650 149-171, looked up)
peptide: FVNLYTREGQDRLAVLLPGRHPS
notes: as for B1
B6: NCOR1_662_684_C662S (peptide, UniProt O75376 662-684, looked up)
peptide: SKNFYFNYKRRHNLDNLLQQHKQ
notes: as for B1
B7: TIF1A_373_395_C394S (peptide, UniProt O15164 373-395, looked up)
peptide: TALLYSKRLITYRLRHLLRARSD
notes: as for B1
B8: NRIP1_173_195_C177S (peptide, UniProt P48552 173-195, looked up)
peptide: KDLRSYGVASSHLKTLLKKSKVK
notes: as for B1
B9: NRIP1_173_195 (peptide, UniProt P48552 173-195, looked up)
peptide: KDLRCYGVASSHLKTLLKKSKVK
notes: as for B1
B10: CBP_2055_2077 (peptide, UniProt Q92793 2055-2077, looked up)
peptide: SVQPPRSISPSALQDLLRTLKSP
notes: as for B1

target: T1, Polyhistidine (His) tagged ERα ligand …; test: peptide or protein array; MARCoNI, PamChip peptide microarray: coregulator motif peptides immobilised; His-ERα-LBD 10 nM (partly purified) in solution with E2 (10^-12 to 10^-5 M), detected with penta-His Alexa Fluor 488 antibody 25 nM; 20 °C; 20 mM Tris-HCl pH 7.5, 500 mM NaCl, 0.2% BSA, 0.05% Tween 20, 2% DMSO; settings: both partners purified

Row | binding result | Binder
1 | binds | B1
2 | binds | B2
3 | binds | B3
4 | binds | B4

target: T1, Polyhistidine (His) tagged ERα ligand …; test: as above; settings: both partners purified; remark: another data set of the same source

Row | binding result | Binder
5 | binds | B5
6 | binds | B6
7 | binds | B7
8 | binds | B8
9 | binds | B9
10 | binds | B10
